{"source": "paper PMC3185027", "about": "“Structural and functional roles of deamidation of N146 and/or truncation of NH2- or COOH-termini in human αB-crystallin” (Molecular Vision, 2011)", "molecular_target": "the molecule itself", "test": "SEC-MALS; HPLC-coupled multi-angle laser light scattering (Wyatt), 18 angles; samples in 50 mM sodium phosphate pH 7.8, filtered through 0.22 μm; absolute molar mass of homomers", "data": [{"protein": "αB-CT (COOH-terminal extension deleted αB-crystallin) (domain or fragment, human, UniProt P02511 1-150, looked up, human αB-crystallin lacking the COOH-terminal extension (residues 151-175); containing residues 1-150; Cloned in pET 100 Directional TOPO; also called COOH-terminally truncated αB; not shown: His6, N-terminal, kept) MDIAIHHPWIRRPFFPFHSPSRLFDQFFGEHLLESDLFPTSTSLSPFYLRPPSFLRAPSWFDTGLSEMRLEKDRFSVNLDVKHFSPEELKVKVLGDVIEVHGKHEERQDEHGFISREFHRKYRIPADVDPLTITSSLSSDGVLTVNGPRK", "values": [{"measurement": "binding result", "result": "binds"}]}, {"protein": "wild-type (WT) αB-crystallin (natural protein, human, UniProt P02511 1-175, looked up, human αB-crystallin, full-length protein containing all residues from 1 to 175; Cloned in pET 100 Directional TOPO; also called His-tagged WT αB-crystallin; not shown: His6, N-terminal, kept) MDIAIHHPWIRRPFFPFHSPSRLFDQFFGEHLLESDLFPTSTSLSPFYLRPPSFLRAPSWFDTGLSEMRLEKDRFSVNLDVKHFSPEELKVKVLGDVIEVHGKHEERQDEHGFISREFHRKYRIPADVDPLTITSSLSSDGVLTVNGPRKQVSGPERTIPITREEKPAVTAAPKK", "values": [{"measurement": "binding result", "result": "binds"}]}, {"protein": "αB N146D (deamidated αB-crystallin mutant) (natural protein, human, UniProt P02511 1-175, looked up, human αB-crystallin, residues 1-175, Asn 146 changed to Asp to mimic deamidation; Cloned in pET 100 Directional TOPO; not shown: His6, N-terminal, kept) MDIAIHHPWIRRPFFPFHSPSRLFDQFFGEHLLESDLFPTSTSLSPFYLRPPSFLRAPSWFDTGLSEMRLEKDRFSVNLDVKHFSPEELKVKVLGDVIEVHGKHEERQDEHGFISREFHRKYRIPADVDPLTITSSLSSDGVLTVDGPRKQVSGPERTIPITREEKPAVTAAPKK", "values": [{"measurement": "binding result", "result": "binds"}]}]}
